Experimental findings from paper PMC5121590, “Antibody-antigen kinetics constrain intracellular humoral immunity” (Scientific Reports, 2016) are described below.

For orientation: Kd means the free concentration of one partner at which half of the binding sites on the other are occupied at equilibrium, for simple one-to-one binding. Broadly, the koff is a measure of how fast the partners let go of each other. In general, kon refers to a measure of how fast the partners come together.

B1: recombinant humanized IgG1 version of 9C12 (h9C12), wild type (antibody, V domains shown)
VH: VQLKQSGPGLLQPSQRLSITCTVSGFSLGRYGVHWIRQSPGKGLEWLGVIWRGGTTDYNAVFMSRLSINKDDSKSQVFFTMNSLRPDDTAIYYCARQGSNFPLAYWGQGTLVTVSA
VL: NIVMTQTPKFLLVSIGDSITITCKASQSVTNDAAWYQKKPGQSPQLLIYQASTRYTGVPDRFSGSGYGTDFTFTISAVQAEDLAVYFCHQDYSSPLTFGAGTKLELK
B2: full-length Adv5 hexon protein (natural protein)
chain: MATPSMMPQWSYMHISGQDASEYLSPGLVQFARATETYFSLNNKFRNPTVAPTHDVTTDRSQRLTLRFIPVDREDTAYSYKARFTLAVGDNRVLDMASTYFDIRGVLDRGPTFKPYSGTAYNALAPKGAPNPCEWDEAATALEINLEEEDDDNEDEVDEQAEQQKTHVFGQAPYSGINITKEGIQIGVEGQTPKYADKTFQPEPQIGESQWYETEINHAAGRVLKKTTPMKPCYGSYAKPTNENGGQGILVKQQNGKLESQVEMQFFSTTEATAGNGDNLTPKVVLYSEDVDIETPDTHISYMPTIKEGNSRELMGQQSMPNRPNYIAFRDNFIGLMYYNSTGNMGVLAGQASQLNAVVDLQDRNTELSYQLLLDSIGDRTRYFSMWNQAVDSYDPDVRIIENHGTEDELPNYCFPLGGVINTETLTKVKPKTGQENGWEKDATEFSDKNEIRVGNNFAMEINLNANLWRNFLYSNIALYLPDKLKYSPSNVKISDNPNTYDYMNKRVVAPGLVDCYINLGARWSLDYMDNVNPFNHHRNAGLRYRSMLLGNGRYVPFHIQVPQKFFAIKNLLLLPGSYTYEWNFRKDVNMVLQSSLGNDLRVDGASIKFDSICLYATFFPMAHNTASTLEAMLRNDTNDQSFNDYLSAANMLYPIPANATNVPISIPSRNWAAFRGWAFTRLKTKETPSLGSGYDPYYTYSGSIPYLDGTFYLNHTFKKVAITFDSSVSWPGNDRLLTPNEFEIKRSVDGEGYNVAQCNMTKDWFLVQMLANYNIGYQGFYIPESYKDRMYSFFRNFQPMSRQVVDDTKYKDYQQVGILHQHNNSGFVGYLAPTMREGQAYPANFPYPLIGKTAVDSITQKKFLCDRTLWRIPFSSNFMSMGALTDLGQNLLYANSAHALDMTFEVDPMDEPTLLYVLFEVFDVVRVHRPHRGVIETVYLRTPFSAGNATT
notes: also called human adenovirus 5 hexon; source: purified from Adv5-infected cells (CsCl-gradient, size exclusion)
B3: h9C12 Fab G53P (Fab, V domains shown)
VH: VQLKQSGPGLLQPSQRLSITCTVSGFSLGRYGVHWIRQSPGKGLEWLGVIWRPGTTDYNAVFMSRLSINKDDSKSQVFFTMNSLRPDDTAIYYCARQGSNFPLAYWGQGTLVTVSA
VL: NIVMTQTPKFLLVSIGDSITITCKASQSVTNDAAWYQKKPGQSPQLLIYQASTRYTGVPDRFSGSGYGTDFTFTISAVQAEDLAVYFCHQDYSSPLTFGAGTKLELK
notes: source: HEK293E, transiently co-transfected, purified (CaptureSelect CH1, SEC Superdex 75)
B4: h9C12 Fab (wild type) (Fab, V domains shown)
VH: VQLKQSGPGLLQPSQRLSITCTVSGFSLGRYGVHWIRQSPGKGLEWLGVIWRGGTTDYNAVFMSRLSINKDDSKSQVFFTMNSLRPDDTAIYYCARQGSNFPLAYWGQGTLVTVSA
VL: NIVMTQTPKFLLVSIGDSITITCKASQSVTNDAAWYQKKPGQSPQLLIYQASTRYTGVPDRFSGSGYGTDFTFTISAVQAEDLAVYFCHQDYSSPLTFGAGTKLELK
notes: also called WT h9C12; humanized 9C12; source: HEK293E, transiently co-transfected, purified (CaptureSelect CH1, SEC Superdex 75)
B5: h9C12 Fab Q97A (Fab, V domains shown)
VH: VQLKQSGPGLLQPSQRLSITCTVSGFSLGRYGVHWIRQSPGKGLEWLGVIWRGGTTDYNAVFMSRLSINKDDSKSQVFFTMNSLRPDDTAIYYCARAGSNFPLAYWGQGTLVTVSA
VL: NIVMTQTPKFLLVSIGDSITITCKASQSVTNDAAWYQKKPGQSPQLLIYQASTRYTGVPDRFSGSGYGTDFTFTISAVQAEDLAVYFCHQDYSSPLTFGAGTKLELK
notes: as for B3
B6: h9C12 Fab T55S (Fab, V domains shown)
VH: VQLKQSGPGLLQPSQRLSITCTVSGFSLGRYGVHWIRQSPGKGLEWLGVIWRGGSTDYNAVFMSRLSINKDDSKSQVFFTMNSLRPDDTAIYYCARQGSNFPLAYWGQGTLVTVSA
VL: NIVMTQTPKFLLVSIGDSITITCKASQSVTNDAAWYQKKPGQSPQLLIYQASTRYTGVPDRFSGSGYGTDFTFTISAVQAEDLAVYFCHQDYSSPLTFGAGTKLELK
notes: as for B3
B7: h9C12 Fab G29R/R30S (Fab, V domains shown)
VH: VQLKQSGPGLLQPSQRLSITCTVSGFSLRSYGVHWIRQSPGKGLEWLGVIWRGGTTDYNAVFMSRLSINKDDSKSQVFFTMNSLRPDDTAIYYCARQGSNFPLAYWGQGTLVTVSA
VL: NIVMTQTPKFLLVSIGDSITITCKASQSVTNDAAWYQKKPGQSPQLLIYQASTRYTGVPDRFSGSGYGTDFTFTISAVQAEDLAVYFCHQDYSSPLTFGAGTKLELK
notes: as for B3
B8: h9C12 Fab N100A (Fab, V domains shown)
VH: VQLKQSGPGLLQPSQRLSITCTVSGFSLGRYGVHWIRQSPGKGLEWLGVIWRGGTTDYNAVFMSRLSINKDDSKSQVFFTMNSLRPDDTAIYYCARQGSAFPLAYWGQGTLVTVSA
VL: NIVMTQTPKFLLVSIGDSITITCKASQSVTNDAAWYQKKPGQSPQLLIYQASTRYTGVPDRFSGSGYGTDFTFTISAVQAEDLAVYFCHQDYSSPLTFGAGTKLELK
notes: as for B3
B9: h9C12 Fab G98C/S99H (Fab, V domains shown)
VH: VQLKQSGPGLLQPSQRLSITCTVSGFSLGRYGVHWIRQSPGKGLEWLGVIWRGGTTDYNAVFMSRLSINKDDSKSQVFFTMNSLRPDDTAIYYCARQCHNFPLAYWGQGTLVTVSA
VL: NIVMTQTPKFLLVSIGDSITITCKASQSVTNDAAWYQKKPGQSPQLLIYQASTRYTGVPDRFSGSGYGTDFTFTISAVQAEDLAVYFCHQDYSSPLTFGAGTKLELK
notes: as for B3
B10: h9C12 Fab W51E (Fab, V domains shown)
VH: VQLKQSGPGLLQPSQRLSITCTVSGFSLGRYGVHWIRQSPGKGLEWLGVIERGGTTDYNAVFMSRLSINKDDSKSQVFFTMNSLRPDDTAIYYCARQGSNFPLAYWGQGTLVTVSA
VL: NIVMTQTPKFLLVSIGDSITITCKASQSVTNDAAWYQKKPGQSPQLLIYQASTRYTGVPDRFSGSGYGTDFTFTISAVQAEDLAVYFCHQDYSSPLTFGAGTKLELK
notes: as for B3
B11: 9C12 Fab (original mouse format, SPR) (Fab, V domains shown)
VH: VQLKQSGPGLLQPSQRLSITCTVSGFSLGRYGVHWIRQSPGKGLEWLGVIWRGGTTDYNAVFMSRLSINKDDSKSQVFFTMNSLRPDDTAIYYCARQGSNFPLAYWGQGTLVTVSA
VL: NIVMTQTPKFLLVSIGDSITITCKASQSVTNDAAWYQKKPGQSPQLLIYQASTRYTGVPDRFSGSGYGTDFTFTISAVQAEDLAVYFCHQDYSSPLTFGAGTKLELK
notes: also called mouse WT 9C12; source: gene fragment synthesized as cDNA; host stated only for the h9C12 variants (HEK293E)
B12: h9C12 Fab Q97A/S99A/F101A/L103A (Fab, V domains shown)
VH: VQLKQSGPGLLQPSQRLSITCTVSGFSLGRYGVHWIRQSPGKGLEWLGVIWRGGTTDYNAVFMSRLSINKDDSKSQVFFTMNSLRPDDTAIYYCARAGANAPAAYWGQGTLVTVSA
VL: NIVMTQTPKFLLVSIGDSITITCKASQSVTNDAAWYQKKPGQSPQLLIYQASTRYTGVPDRFSGSGYGTDFTFTISAVQAEDLAVYFCHQDYSSPLTFGAGTKLELK
notes: also called combined alanine mutations in H3; source: HEK293E, transiently co-transfected, purified (CaptureSelect CH1, SEC Superdex 75)
B13: h9C12 Fab G32P (Fab, V domains shown)
VH: VQLKQSGPGLLQPSQRLSITCTVSGFSLGRYPVHWIRQSPGKGLEWLGVIWRGGTTDYNAVFMSRLSINKDDSKSQVFFTMNSLRPDDTAIYYCARQGSNFPLAYWGQGTLVTVSA
VL: NIVMTQTPKFLLVSIGDSITITCKASQSVTNDAAWYQKKPGQSPQLLIYQASTRYTGVPDRFSGSGYGTDFTFTISAVQAEDLAVYFCHQDYSSPLTFGAGTKLELK
notes: as for B3
B14: h9C12 Fab Q97R (Fab, V domains shown)
VH: VQLKQSGPGLLQPSQRLSITCTVSGFSLGRYGVHWIRQSPGKGLEWLGVIWRGGTTDYNAVFMSRLSINKDDSKSQVFFTMNSLRPDDTAIYYCARRGSNFPLAYWGQGTLVTVSA
VL: NIVMTQTPKFLLVSIGDSITITCKASQSVTNDAAWYQKKPGQSPQLLIYQASTRYTGVPDRFSGSGYGTDFTFTISAVQAEDLAVYFCHQDYSSPLTFGAGTKLELK
notes: as for B3
B15: h9C12 Fab G98P (Fab, V domains shown)
VH: VQLKQSGPGLLQPSQRLSITCTVSGFSLGRYGVHWIRQSPGKGLEWLGVIWRGGTTDYNAVFMSRLSINKDDSKSQVFFTMNSLRPDDTAIYYCARQPSNFPLAYWGQGTLVTVSA
VL: NIVMTQTPKFLLVSIGDSITITCKASQSVTNDAAWYQKKPGQSPQLLIYQASTRYTGVPDRFSGSGYGTDFTFTISAVQAEDLAVYFCHQDYSSPLTFGAGTKLELK
notes: as for B3

For one data set, the target named is T1, recombinant AdV5 hexon protein (Human adenovirus C serotype 5 (HAdV-5), UniProt P04133). Nature of the data set: cell-based or functional assay.
Conditions: not given
Regarding B1, the “neutralization of Adv5 infection in HEK293T cells” value is around 25 fold.

The next data set concerns the molecule itself. Nature of the data set: crystal structure; 9C12 Fab and hexon mixed 1:1 to a 5 mg/ml complex; crystals in 15% MPD, 5% PEG 4K, 0.1 M imidazole pH 8; 2.7 Å.
Conditions: not given
Turning to B2, the binding result is recorded as “binds”.

For another data set, the target named is T1, recombinant AdV5 hexon protein. Nature of the data set: SPR. As to conditions: both partners purified.
On to B3, for which the Kd amounted to 330 nM, the dissociation rate constant (koff) was 0.079 s⁻¹ and the kon was determined as 239000 M⁻¹ s⁻¹. For B4, in that order: 0.8 nM, 0.00052 s⁻¹ and 635000 M⁻¹ s⁻¹. For the molecule B5, the Kd worked out at 462 nM. Consider B6, for which the dissociation constant Kd amounted to 1.2 nM, the dissociation rate constant (koff) is 0.00095 s⁻¹ and the kon worked out at 795000 M⁻¹ s⁻¹. On the same counts, the results for B7 are 92.8 nM, 0.0049 s⁻¹ and 53000 M⁻¹ s⁻¹.

As for B8, the Kd amounted to 0.9 nM, the koff is 0.00085 s⁻¹ and the kon was 889000 M⁻¹ s⁻¹. For B9, in that order: 288 nM, 0.0052 s⁻¹ and 18000 M⁻¹ s⁻¹.

B10: the dissociation constant Kd stood at 16900 nM.

As for B11, the dissociation constant (Kd) is 1 nM, the koff worked out at 0.00045 s⁻¹ and the kon was found to be 447000 M⁻¹ s⁻¹.

For the next data set the target is unchanged. Nature of the data set: SPR. The conditions noted are these: both partners purified. The source holds these as a separate data set.
As for B12, the binding result is “no binding”. The same measure, in the same setting: the same measure for B13: “no binding”. The same measure, in the same setting: the same measure for B14: “no binding”; for B15: “no binding”.
